Patent US20210238262A1

Target: ZIKV PR (Puerto Rican strain, PRVABC59) virus (Zika virus strain PRVABC59)
Assay: cell-based or functional assay

Substance Z004 (antibody) has a micro-neutralization (MN50) in Vero cells, IC50 of 1.4 ng/mL.
